Reference: patent US20230106131A1 (OHIO STATE INNOVATION FOUNDATION, published 2023)
Numbered stars: 1 amine (or outer) side, 2 acyl side, 3 side chain; on linkers, the order of the positions; unused ones are H or OH. Bridge positions count the residues as written; N and C are the ends. Square brackets hold non-standard residues; d marks the D form. Side chains are listed from the residue outwards. Ends that are not written are not given here. * marks the point of attachment. aminooxyacetyl = aminooxyacetyl (from Boc-aminooxyacetyl acylation of Lys side-chain amine), NOCC(=O)*; 2Nal = N[C@@H](Cc1ccc2ccccc2c1)C(=O)O; mXylylene = c1cc(C[*:1])cc(C[*:2])c1; CH2COCH2 = O=C(C[*:1])C[*:2]; hCys = N[C@@H](CCS)C(=O)O; AEEA = NCCOCCOCC(=O)O

Columns and labels:
[1] = target: T1, GST-MDM2 (human MDM2 residues 17-125) (human, UniProt Q00987 17-125); experiment: direct binding of the FITC-labeled peptide to MDM2
T1 construct: range 17-125; No removal of GST is reported; not shown: glutathione S-transferase (GST) tag encoded by vector pGEX-6P-2

[2] = target: T1, GST-MDM2 (human MDM2 residues 17-125); experiment: fluorescence anisotropy competition with FITC-labeled peptide 1 for MDM2
[3] = target: T1, GST-MDM2 (human MDM2 residues 17-125); experiment: ratio of KD values of FITC-labeled peptides
[4] = target: T1, GST-MDM2 (human MDM2 residues 17-125); experiment: direct binding of the FITC-labeled peptide to MDM2; remark: listed apart in the source
[5] = target: T1, GST-MDM2 (human MDM2 residues 17-125); experiment: direct binding of the FITC-labeled peptide to MDM2 (the text differs from Table 7)

B1: peptide 13, Ac-EETFCHYWCQLTS-miniPEG-K(FITC)-NH2, stapled with BBA-CPP9 (peptide)
peptide 1: EETFCHYWCQLTS
peptide 2: FXRRRRQ
modifications: head-to-tail cyclic; D-Phe at 1, L-2-naphthylalanine at 2, D-Arg at 4 and 6; miniPEG-Lys linker, with the Lys side chain acylated by the BBA staple; N-terminal acetyl; Cys 5 and Cys 9 joined by a 3,5-dimethylbenzoyl (BBA) staple that carries CPP9; C-terminal miniPEG-Lys(FITC) amide
- Kd [1]: 365 nM

B2: peptide 5 (DCA-stapled peptide 2 conjugated to CPP9 through an oxime, stereoisomer 2, unlabeled) (peptide)
peptide 1: LTF[hCys]HYW[hCys]QLTS
peptide 2: [dF][2Nal]R[dR]R[dR]Q([AEEA-Lys-aminooxyacetyl])
modifications: thioether (positions not given here) via CH2COCH2; not fully specified (bridges); also: oxime stereoisomer 2 (peak 2), Z/E not determined, further groups not given here, head-to-tail to a chain's N/C-terminus
notes: also called 3-1-1-DCA-CP9 peak2
- IC50 [2]: 201 nM

B3: peptide 4 (DCA-stapled peptide 2 conjugated to CPP9 through an oxime, stereoisomer 1, unlabeled) (peptide)
peptide 1: LTF[hCys]HYW[hCys]QLTS
peptide 2: [dF][2Nal]R[dR]R[dR]Q([AEEA-Lys-aminooxyacetyl])
modifications: thioether (positions not given here) via CH2COCH2; not fully specified (bridges); also: oxime stereoisomer 1 (peak 1), Z/E not determined, further groups not given here, head-to-tail to a chain's N/C-terminus
notes: Peptides 4 and 5 are the two isomers separated by HPLC; also called 3-1-1-DCA-CP9 peak1
- IC50 [2]: 220 nM

B4: peptide 7, Ac-LTFCHYWCQLTS-miniPEG-K(FITC)-NH2, stapled with BBA-CPP9 (peptide)
peptide 1: LTFCHYWCQLTS
peptide 2: FXRRRRQ
modifications: head-to-tail cyclic; D-Phe at 1, L-2-naphthylalanine at 2, D-Arg at 4 and 6; miniPEG-Lys linker, with the Lys side chain acylated by the BBA staple; N-terminal acetyl; Cys 4 and Cys 8 joined by a 3,5-dimethylbenzoyl (BBA) staple that carries CPP9; C-terminal miniPEG-Lys(FITC) amide
- fold decrease of MDM2 binding affinity against peptide 6 [3]: ~2 fold
- Kd [1]: ~300 nM

B5: peptide 11, Ac-ETFCHYWCQLTS-miniPEG-K(FITC)-NH2, stapled with BBA-CPP9 (peptide)
peptide 1: ETFCHYWCQLTS
peptide 2: FXRRRRQ
modifications: head-to-tail cyclic; D-Phe at 1, L-2-naphthylalanine at 2, D-Arg at 4 and 6; miniPEG-Lys linker, with the Lys side chain acylated by the BBA staple; N-terminal acetyl; Cys 4 and Cys 8 joined by a 3,5-dimethylbenzoyl (BBA) staple that carries CPP9; C-terminal miniPEG-Lys(FITC) amide
- fold decrease of MDM2 binding affinity against peptide 10 [3]: 6 fold
- Kd [1]: 225 nM

B6: peptide 2 (PDI with homocysteine at Glu-4 and Ala-8, stapled with DCA, FITC-labeled) (peptide)
peptide: LTFXHYWXQLTS
modifications: not fully specified; homocysteine at 4 and 8, joined by a 1,3-dichloroacetone (DCA) staple; FITC label; the rest of the structure only in drawing CHEM-US-00019
notes: X stands for homocysteine; also called 3-1-1-DCA
- Kd [4]: 144 nM

B7: peptide 12, Ac-EETFCHYWCQLTS-miniPEG-K(FITC)-NH2, xylene-stapled (peptide)
peptide: Ac-EETFCHYWCQLTS-{AEEA-K(FITC)-NH2}
modifications: linker 5-9 via mXylylene
notes: No CPP
- Kd [1]: 187 nM

B8: peptide 6, Ac-LTFCHYWCQLTS-miniPEG-K(FITC)-NH2, stapled (peptide)
peptide: Ac-LTFCHYWCQLTS-{AEEA-K(FITC)-NH2}
modifications: bridge 4-8; not fully specified (bridges); printed as Ac-LTFCHYWCQLTS-miniPEG-K(FITC)-NH
notes: No CPP
- fold decrease of MDM2-binding affinity against peptide 1 [3]: ~2.5 fold
- Kd [1]: 190 nM

B9: peptide 10, Ac-ETFCHYWCQLTS-miniPEG-K(FITC)-NH2, xylene-stapled (peptide)
peptide: Ac-ETFCHYWCQLTS-{AEEA-K(FITC)-NH2}
modifications: linker 4-8 via mXylylene
notes: No CPP
- fold improvement of binding affinity against peptide 6 [3]: 5 fold
- Kd [1]: 36 nM

B10: peptide 3 (PDI with homocysteine at His-5 and Gln-9, stapled with DCA, FITC-labeled) (peptide)
peptide: LTFEXYWAXLTS
modifications: not fully specified; homocysteine at 5 and 9, joined by a 1,3-dichloroacetone (DCA) staple; FITC label; the rest of the structure only in drawing CHEM-US-00020
notes: X stands for homocysteine
- Kd [4]: 171 nM

B11: peptide 8, Ac-LTFhCHYWhCQLTS-miniPEG-K(FITC)-NH2, stapled (peptide)
peptide: Ac-LTF[hCys]HYW[hCys]QLTS-{AEEA-K(FITC)-NH2}
modifications: bridge 4-8; not fully specified (bridges)
notes: No CPP
- fold improvement of MDM2 binding affinity against peptide 1 [3]: 5 fold
- Kd [1]: 15 nM
- Kd [5]: 14 nM
